# Measured values from publication PMC11524583, “Neurons enhance blood–brain barrier function via upregulating claudin-5 and VE-cadherin expression due to glial cell line-derived neurotrophic factor secretion” (eLife, 2024).
# Values joined by “and” are separate entries in the source; they are usually repeats but may differ in a detail not shown here. Equal entries are not always repeated.
# B1: GDNF: glial cell line-derived neurotrophic factor, recombinant protein (R&D system) (protein, UniProt P39905 78-211, looked up)
# Glial cell line-derived …: SPDKQMAVLPRRERNRQAAAANPENSRGKGRRGQRGKNRGCVLTAIHLNVTDLGLGYETKEELIFRYCSGSCDAAETTYDKILKNLSRNRRLVSDKVGQACCRPIAFDDDLSFLDDNLVYHILRKHSAKRCGCI
# Assays:
# p-JNK/JNK = experiment: Western blot of p-JNK/JNK in hCMEC/D3 cells; format: cell-based, Homo sapiens
# Protocol: (§1) Whole-cell and tissue lysates, nucleoprotein, and cytoplasmic protein were prepared using RIPA Lysis Buffer (Beyotime, Shanghai, China) as the described method ([Wu et al., 2021]). Proteins were separated through sodium dodecyl sulfate–polyacrylamide gel electrophoresis and transferred onto nitrocellulose or polyvinylidene difluoride membranes. The membranes were blocked with 5% skim milk and incubated with corresponding primary antibodies at 4°C overnight. After being washed with Tris-buffered saline Tween buffer, the membranes were incubated with secondary antibodies (Cell Signaling Technology, MA, USA) at 1:3000 dilution: Anti-mouse IgG, HRP-linked Antibody (#7076), Anti-rabbit IgG, HRP-linked Antibody (#7074). Protein levels were visualized using a highly sensitive ECL western blotting substrate and a gel imaging system (Tanon Science & Technology, Shanghai, China).
# claudin-5 = experiment: Western blot of claudin-5 in primary rat brain microvascular endothelial cells; format: cell-based; settings: primary rat BMECs, 200 pg/ml GDNF or US-CM
# Protocol: Then, hCMEC/D3, U251, and SH-SY5Y cells were cultured in DMEM/F12 containing 10% FBS, 62.5 µg/ml penicillin and 100 µg/ml streptomycin. Cell viability was assessed using a CCK-8 kit (Beyotime Biotechnology, Shanghai, China), and the results were expressed as the fold of control.
# as §1
# p-AKT/AKT = experiment: Western blot of p-AKT/AKT in hCMEC/D3 cells; format: cell-based, Homo sapiens
# Protocol: as §1
# Exogenous and endogenous GDNF in the medium was neutralized with anti-GDNF antibody (#AF-212-NA, R&D system, Minneapolis, MN, USA). 0.25, 0.5, and 1.0 μg/ml anti-GDNF antibody was added into the US-CM or medium containing 200 pg/ml GDNF, and then the medium was preincubated at 4°C for 1 hr. The hCMEC/D3 cells were incubated with 200 pg/ml GDNF or US-CM containing anti-GDNF antibody or not for 6 days, and then cell lysate was collected for western blot. The medium was replaced every 24 hr.
# p-p38/p38 = experiment: Western blot of p-p38/p38 in hCMEC/D3 cells; format: cell-based, Homo sapiens
# Protocol: as §1
# [1] = test system: hCMEC/D3 mono-culture BBB model; experiment: TEER of hCMEC/D3 mono-culture BBB model; format: cell-based, Homo sapiens; settings: for TEER: individual replicates
molecule,measurement,setting,value
B1,phosphorylation of JNK,"p-JNK/JNK; hCMEC/D3 cells, 200 pg/ml GDNF",did not stimulate
same,p-JNK/JNK Relative Expression Mean,"p-JNK/JNK; relative to Con (mean 1.000), mean of 4, Figure 3C",1.172
same,p-JNK/JNK Relative Expression,"p-JNK/JNK; relative to Con (mean 1.000), single replicates, Figure 3C",1.036 and 1.122 and 1.219 and 1.311
same,"Claudin-5/β-actin Relative Expression, Mean",claudin-5; Con = 1.000 (Figure 2J),1.469
same,Claudin-5/β-actin Relative Expression,"claudin-5; relative to Con, single replicate (Figure 2J)",1.317 and 1.479 and 1.586 and 1.495
same,phosphorylation of AKT (p-AKT),"p-AKT/AKT; hCMEC/D3 cells, 200 pg/ml GDNF or US-CM",accompanied by the phosphorylation
same,"p-AKT/AKT Relative Expression, Mean","p-AKT/AKT; mean of 4, relative to Con, GDNF alone, Figure 3E",1.284
same,"p-AKT/AKT Relative Expression, Mean","p-AKT/AKT; relative to Con (mean 1.000), mean of 4, Figure 3A",1.345
same,p-AKT/AKT Relative Expression,"p-AKT/AKT; relative to Con (mean 1.000), single replicates, Figure 3A",1.311 and 1.24 and 1.38 and 1.4488
same,p-AKT/AKT Relative Expression,"p-AKT/AKT; single replicate, relative to Con, GDNF alone, Figure 3E",1.359 and 1.208 and 1.388 and 1.180
same,phosphorylation of p38,"p-p38/p38; hCMEC/D3 cells, 200 pg/ml GDNF",did not stimulate
same,p-p38/p38 Relative Expression Mean,"p-p38/p38; relative to Con (mean 1.000), mean of 4, Figure 3D",0.924
same,p-p38/p38 Relative Expression,"p-p38/p38; relative to Con (mean 1.000), single replicates, Figure 3D",0.949 and 0.886 and 0.913 and 0.946
same,TEER,"[1]; Figure 2M, Day3",61.71 Ω·cm2 and 62.7 Ω·cm2 and 62.37 Ω·cm2
same,TEER,"[1]; Figure 2M, Day4",64.35 Ω·cm2 and 63.69 Ω·cm2 and 66 Ω·cm2 and 65.34 Ω·cm2
same,TEER,"[1]; Figure 2M, Day5",68.31 Ω·cm2 and 66.99 Ω·cm2 and 67.65 Ω·cm2 and 67.32 Ω·cm2
same,TEER,"[1]; Figure 2M, Day6",69.3 Ω·cm2 and 67.32 Ω·cm2 and 68.64 Ω·cm2 and 66.99 Ω·cm2
same,TEER,"[1]; Figure 2O, Day3",71.61 Ω·cm2 and 69.3 Ω·cm2 and 68.64 Ω·cm2 and 69.63 Ω·cm2
same,TEER,"[1]; Figure 2O, Day4",74.25 Ω·cm2 and 76.23 Ω·cm2 and 72.27 Ω·cm2 and 74.91 Ω·cm2
same,TEER,"[1]; Figure 2O, Day5",77.22 Ω·cm2 and 72.93 Ω·cm2 and 74.58 Ω·cm2 and 77.55 Ω·cm2
same,TEER,"[1]; Figure 2O, Day6",76.23 Ω·cm2 and 73.92 Ω·cm2 and 76.56 Ω·cm2
same,TEER values,"[1]; hCMEC/D3 mono-culture, 200 pg/ml GDNF, day 6",significantly increased
